The target of the data set is T1, TtAgo (Thermus thermophilus Argonaute) (Thermus thermophilus, UniProt Q746M7 1-685).
T1 sequence: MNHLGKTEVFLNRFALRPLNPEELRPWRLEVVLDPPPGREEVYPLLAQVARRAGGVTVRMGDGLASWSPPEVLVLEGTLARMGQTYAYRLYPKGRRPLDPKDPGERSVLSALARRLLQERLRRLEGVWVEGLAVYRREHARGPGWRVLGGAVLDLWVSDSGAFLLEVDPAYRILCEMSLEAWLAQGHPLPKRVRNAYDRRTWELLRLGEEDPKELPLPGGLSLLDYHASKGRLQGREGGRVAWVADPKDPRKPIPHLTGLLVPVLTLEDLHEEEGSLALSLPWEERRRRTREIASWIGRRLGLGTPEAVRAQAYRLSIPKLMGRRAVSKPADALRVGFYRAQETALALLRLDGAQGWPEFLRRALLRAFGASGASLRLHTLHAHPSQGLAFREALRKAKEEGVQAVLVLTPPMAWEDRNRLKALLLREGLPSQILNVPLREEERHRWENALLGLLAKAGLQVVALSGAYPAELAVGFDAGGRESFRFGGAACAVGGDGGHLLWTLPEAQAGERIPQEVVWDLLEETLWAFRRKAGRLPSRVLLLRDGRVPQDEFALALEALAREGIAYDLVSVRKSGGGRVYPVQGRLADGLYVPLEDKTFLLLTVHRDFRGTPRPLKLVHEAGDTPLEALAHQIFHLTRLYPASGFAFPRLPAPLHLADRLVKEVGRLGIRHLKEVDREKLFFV
Kind of data set: EMSA; ternary complex; higher than with C-gDNA; BLI in 1x reaction buffer (composition, pH and temperature not given in the material); EMSA conditions not given. The conditions noted are these: protein: recombinant; tags: Ni-column purified; dialyzed with TEV protease (tag not described); guide 1-18 pairs with target 12-29; target overhangs 11 nt 5', 1 nt 3'.

This is an account of results in article PMC11267260, “Atom‐Modified gDNA Enhances Cleavage Activity of TtAgo Enabling Ultra‐Sensitive Nucleic Acid Testing”.

B1: F1-gDNA + target (mixed)
DNA 1: CATGCATCGATCAGCTAC
DNA 2: CTGCAGTCGTCGTAGCTGATCGATGCATGC
modifications: 2'-F on C18 of guide
Take B1: the binding result is recorded as “binds”.
